Molecular target: BG505 MD39.3 SOSIP trimer (soluble Env trimer, SPR analyte) (HIV-1 group M subtype A, isolate BG505, stabilised)
Assay: SPR

B1: V2-Int1 antibody (PCT64-18D), human IgG1 (antibody, V domains shown)
VH: EVQLVESGGGLVKPGGSLRLSCVGSGFAFSDAWMTWVRQAPGKGLEWVGHMRPTPEGGAKDYAAPVKGRFTVSRDDSKNTLYLQMNSLKIEDTAVYYCMTGVETGDFWSDYYAQYYDPYLIDVWGKGTTVTVSS
VL: EIVLTQSPGTLSLSPGDRATLSCRATQSVDSNYLAWYQQKPGQAPRLLIYGTSSRAAGIPDRFSGSGSGTDFTLTIDRLEPEDFAVYYCRQYGTSFTFGPGTKVDIK
Kd: 770 nM

— paper PMC12642504 (bioRxiv, 2025)
